Test results reported in patent US20240424117A1, “Paclitaxel Prodrug, Preparation Method and Application Thereof” (WEST CHINA HOSPITAL, SICHUAN UNIVERSITY, priority 2023, published 2024).

Assays:
Type in all cases: physicochemical
[1] = Particle size, particle size distribution and zeta potential of micelles by dynamic light scattering; conditions: prodrug micelles in aqueous solution, 25° C.; for PDI / Size(nm): DLS
Protocol: The particle size, particle size distribution and zeta potential of micelles were measured by Zetasizer Nano ZS Dynamic light scattering (DLS) potentiometer (Malvern, UK) at 25° C. and 90° scattering angle.

[2] = Study on the stability of micelles in vitro (PBS or added glutathione, DLS); conditions: GSH added, 37° C. shaker, DLS (FIG. 5)
Protocol: In order to study the stability of micelles in vitro, the micellar solution was dropped into PBS simulating the human physiological environment, or a certain amount of glutathione was added. All samples were placed in a 37° C. constant temperature shaker (110 rpm), and the stability of micelles was studied by dynamic light scattering at the pre-determined time points.

[3] = Release performance of prodrug (dialysis, HPLC determination of paclitaxel); conditions: for time to almost complete release of paclitaxel: 37° C.; for change of release rate after the addition of GSH: with GSH (10 mM) versus without
Protocol: The testing instrument was Agilent 1260 series (USA), with a reversed phase C18 column (4.6×100 mm). The mobile phase was acetonitrile/water (80/20), the column temperature was 30° C., the flow rate was 1.0 mL/min, and the detection wavelength was 227 nm.
Firstly, HPLC was used to detect the response of PTX in this mobile phase. After accurately weighing a certain amount of paclitaxel, PTX was prepared with the mixed solvent of acetonitrile and ultrapure water (9/1, v/v) into a series of standard solutions at different concentrations. Linear regression was performed between the measured response peak area A and concentration C, to obtain the standard curve of the PTX solution. The curve equation was fitted, and the concentration-peak area curve equation of PTX was Y=25.025X, with a correlation coefficient of R^2=0.9996.
3 mL of drug-loaded micelles were loaded into a dialysis bag (MWCO=1000), and the release medium was PBS containing 30% ethanol (V/V) (pH 5.0 or 7.4). The release of paclitaxel from self-assembled nanoparticles of prodrug was investigated with or without the addition of glutathione (10 mM GSH). The specific procedures are as follows: 3 mL of prodrug nanoparticle solution (1 mg/mL) was placed into a dialysis bag (MW1000) and added to 30 mL of the release media, and then the entire system was transferred into a constant temperature shaker (37° C., 110 rpm). 1 mL of release solution was collected at different pre-determined time points, taking 3 parallel samples at each time point. After sampling, the same volume of pure PBS or PBS containing 10 mM GSH (10 Mm) was supplemented, and the drug concentration was determined by HPLC. The cumulative release was calculated using the following formula:
[formula] • wherein R is the cumulative release amount; Vi is the total volume of the solution before the i-th sampling; Ci is the total concentration of the solution before the i-th sampling; Vsj is the jth sampling volume; Cj is the total concentration of the solution before the jth sampling, i=2, 3, 4 . . .; j=i−1.

[4] = Transmission electron microscopy of micellar morphology; conditions: TEM (FIG. 3)
Protocol: A small amount of micellar solution fully mixed under ultrasonic was added dropwise onto the copper mesh coated with Formvar film, and then dyed with 1% (w/v) phosphotungstic acid staining solution for 3 min. Subsequently, the excess liquid was absorbed with filter paper, and the copper mesh was allowed to dry naturally. Then, Tecnai G2 F20 S-TWIN transmission electron microscopy (FEI Corporation, USA) was used to observe the micellar morphology, and the acceleration voltage was 75 KV.

[5] = acidic pH 5.0, with GSH (10 mM)
[6] = neutral pH 7.4, with GSH (10 mM)

With “paclitaxel-adipic acid-polyethylene glycol [PAP]” the “Zeta Potential(mV)” value [1] was −13.2 ± 0.6 mV, the PDI [1] was 0.103 ± 0.037 and the “Size(nm)” value [1] was 109.43 ± 0.94 nm.

In the case of “paclitaxel-adipic acid-polyethylene glycol-RGD peptide [PAPR]”, the “Zeta Potential(mV)” value [1] is reported as −9.91 ± 0.3 mV, the PDI [1] is reported as 0.110 ± 0.002 and the “Size(nm)” value [1] is reported as 117.93 ± 5.57 nm.

In the case of “paclitaxel-dithiodipropionic acid-polyethylene glycol [PDP]”, the “micelle state (particle size and PDI) after addition of glutathione” value [2] is reported as “significantly disintegrated”, the “time to almost complete release of paclitaxel” value (“time to almost complete release” below) [3, 5] is reported as 144 h and the “time to almost complete release” value [3, 6] is reported as 120 h. The “change of release rate after the addition of GSH” value [3] was “significantly accelerated”, the “Zeta Potential(mV)” value [1] was −18.1 ± 0.8 mV and the PDI [1] was 0.166 ± 0.003. For the same substance, the “Size(nm)” value [1] was 129.07 ± 1.76 nm.

In the case of “paclitaxel-dithiodipropionic acid-polyethylene glycol-RGD Peptide [PDPR]”, the “micelle state (particle size and PDI) after addition of glutathione” value [2] is reported as “significantly disintegrated”, the “time to almost complete release” value [3, 5] is reported as 144 h and the “time to almost complete release” value [3, 6] is reported as 120 h. The “change of release rate after the addition of GSH” value [3] was “significantly accelerated”, the “micelle morphology and dispersion” value [4] was “uniform particle size and dispersion” and the “Zeta Potential(mV)” value [1] was −7.38 ± 0.8 mV. For the same substance, the PDI [1] was 0.065 ± 0.012 and the “Size(nm)” value [1] was 114.63 ± 1.53 nm.
